From article PMC4159138, “Fission Yeast Pxd1 Promotes Proper DNA Repair by Activating Rad16^XPF and Inhibiting Dna2” (PLoS Biology, 2014) come the findings set out here.

Data set [1] deals with T1, RPA (UniProt Q92372;Q92373;Q92374 1-609;1-279;1-104).
T1 sequence 1: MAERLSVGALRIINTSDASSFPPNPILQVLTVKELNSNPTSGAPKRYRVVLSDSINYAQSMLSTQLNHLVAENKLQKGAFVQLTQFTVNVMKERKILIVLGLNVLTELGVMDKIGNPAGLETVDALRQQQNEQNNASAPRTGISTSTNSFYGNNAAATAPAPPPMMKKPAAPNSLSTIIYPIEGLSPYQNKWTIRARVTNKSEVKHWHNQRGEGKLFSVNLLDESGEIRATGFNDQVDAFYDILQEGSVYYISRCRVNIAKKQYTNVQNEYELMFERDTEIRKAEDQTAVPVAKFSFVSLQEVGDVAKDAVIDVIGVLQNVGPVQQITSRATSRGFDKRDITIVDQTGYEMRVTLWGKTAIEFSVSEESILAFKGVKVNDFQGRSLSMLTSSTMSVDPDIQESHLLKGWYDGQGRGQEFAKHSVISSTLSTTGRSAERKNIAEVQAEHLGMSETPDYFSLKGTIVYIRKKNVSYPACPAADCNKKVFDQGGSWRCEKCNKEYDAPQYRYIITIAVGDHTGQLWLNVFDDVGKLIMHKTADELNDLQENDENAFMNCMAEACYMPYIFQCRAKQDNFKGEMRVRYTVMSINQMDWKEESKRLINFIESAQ
T1 sequence 2: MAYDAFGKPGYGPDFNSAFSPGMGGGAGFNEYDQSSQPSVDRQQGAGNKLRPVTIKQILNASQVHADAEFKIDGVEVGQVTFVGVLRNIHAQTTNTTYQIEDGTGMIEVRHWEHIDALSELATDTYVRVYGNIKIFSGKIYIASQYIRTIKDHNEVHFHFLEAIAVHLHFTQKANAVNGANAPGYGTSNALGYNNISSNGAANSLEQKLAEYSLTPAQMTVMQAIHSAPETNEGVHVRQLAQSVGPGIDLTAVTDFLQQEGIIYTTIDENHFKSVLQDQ
T1 sequence 3: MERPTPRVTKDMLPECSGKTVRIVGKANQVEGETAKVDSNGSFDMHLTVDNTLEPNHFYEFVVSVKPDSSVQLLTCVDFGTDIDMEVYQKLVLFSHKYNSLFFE
Nature of the data set: EMSA; 1 mM EDTA; 50 ng RPA; 50 mM Tris-HCl pH 7.5, 1 mM EDTA, 1 mM DTT, 0.1 mg/ml BSA, 50 mM NaCl, 5% glycerol, 15 fmol DNA in 10 µl, room temperature 30 min; 5% PAGE in 1x TBE. To be noted: protein: recombinant; tags: 6xHis-GST on Rpa1 in plasmid pDB2129; copies: 1;1;1; label: 5' 32P on oligo461; 18 bp duplex with 5' overhang 31 nt on oligo461. Background: Mobility shift assays separate free from complexed probe on a gel.

Data set [2] deals with T2, Dna2 co-overexpressed with Cdc24-YFH and purified from fission yeast (S. pombe, UniProt Q9URU2 1-1397).
T2 construct: Dna2, S. pombe; The Dna2 chain of m29, written alone for the cross-links with Cdc24; source: fission yeast pxd1Δ cells, co-overexpressed with Cdc24-YFH, purified (anti-FLAG beads)
T2 sequence (looked up): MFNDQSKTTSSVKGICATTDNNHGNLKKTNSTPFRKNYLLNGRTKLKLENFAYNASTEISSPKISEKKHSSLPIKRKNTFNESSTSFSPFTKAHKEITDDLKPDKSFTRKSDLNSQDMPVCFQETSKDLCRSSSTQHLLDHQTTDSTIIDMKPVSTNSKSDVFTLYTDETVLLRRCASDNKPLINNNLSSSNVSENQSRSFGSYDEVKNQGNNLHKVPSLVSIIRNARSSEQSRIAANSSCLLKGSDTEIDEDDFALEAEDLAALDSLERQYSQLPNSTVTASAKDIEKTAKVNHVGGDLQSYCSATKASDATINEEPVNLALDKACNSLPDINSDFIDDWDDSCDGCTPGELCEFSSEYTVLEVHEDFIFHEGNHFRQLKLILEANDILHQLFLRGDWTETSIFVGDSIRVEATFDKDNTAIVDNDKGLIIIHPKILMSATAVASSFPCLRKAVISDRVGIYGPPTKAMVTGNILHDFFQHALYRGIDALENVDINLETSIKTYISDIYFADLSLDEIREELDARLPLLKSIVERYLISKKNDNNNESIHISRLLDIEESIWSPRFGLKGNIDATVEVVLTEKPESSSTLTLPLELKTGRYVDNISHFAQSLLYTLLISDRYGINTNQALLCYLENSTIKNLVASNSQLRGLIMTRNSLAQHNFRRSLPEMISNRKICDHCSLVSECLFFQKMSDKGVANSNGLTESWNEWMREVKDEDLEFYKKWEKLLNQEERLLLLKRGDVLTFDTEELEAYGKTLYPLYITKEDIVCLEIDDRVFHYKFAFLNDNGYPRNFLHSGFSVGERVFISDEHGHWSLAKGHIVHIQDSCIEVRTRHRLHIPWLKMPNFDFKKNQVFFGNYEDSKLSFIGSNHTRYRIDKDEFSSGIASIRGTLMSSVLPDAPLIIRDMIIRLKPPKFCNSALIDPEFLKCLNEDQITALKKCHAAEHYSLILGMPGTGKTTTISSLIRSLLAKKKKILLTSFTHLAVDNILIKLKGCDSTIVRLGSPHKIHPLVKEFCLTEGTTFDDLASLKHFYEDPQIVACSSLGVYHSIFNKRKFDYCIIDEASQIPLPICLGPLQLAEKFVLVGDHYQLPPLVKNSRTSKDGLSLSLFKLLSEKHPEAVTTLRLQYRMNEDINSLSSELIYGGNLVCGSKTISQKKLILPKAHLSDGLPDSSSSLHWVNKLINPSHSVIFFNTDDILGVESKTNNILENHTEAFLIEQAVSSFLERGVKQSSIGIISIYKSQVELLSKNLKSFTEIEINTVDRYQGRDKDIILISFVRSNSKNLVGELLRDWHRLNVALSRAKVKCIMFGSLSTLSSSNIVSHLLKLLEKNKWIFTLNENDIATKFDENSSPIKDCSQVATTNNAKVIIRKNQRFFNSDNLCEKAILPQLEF
Nature of the data set: cross-linking; CXMS: Dna2-Cdc24-Pxd1(227–351) complex formed on anti-FLAG beads and eluted with 3× FLAG peptide; about 12 µg cross-linked by BS3 or DSS (0.5 mM, 1 h, room temperature), trypsin, LC-MS/MS, pLink. Particulars: both partners purified.

B1: 5' overhang DNA (oligo461/oligo463) (dsDNA)
DNA 1: CACGCTACCGAATTCTGACTTGCTAGGACATCTTTGCCCACGTTGACCC
DNA 2: GGGTCAACGTGGGCAAAG
Turning to B1, in data set [1], the binding result is given as “binds”.

B2: Cdc24-YFH co-overexpressed with Dna2 and purified from fission yeast (natural protein, S. pombe, UniProt O75004 1-501, looked up)
chain: MDFPGLIKKIKEDLENRLVEKSKQPAFTDYWLINKTISLLKEYPSGFSYPILINEIELACSERNKLDNVFSSLEWLTKSDAVIYLEDQFHFHCYDYYYTPIPSLKLKDSEENTCEMILHSSFYLLFHEPFNILKGSTLRFSQSRIHQKWYLRKQIRFLPTTSFVPVLQYAASKSFVKSMVESTEHEFFQIRDITISKSDQGVKRITVELGRIISLDKKGAFLIDNNTNFIHFSGTYHDFPKLLDKQQYLLIPFWSTVWEGSTNWQDGMIGILVILSENDFEEKKCDSWQVGRLAAVNSNFLVLDNNGQRVKILYSNSQKHYFKDTYIGDLLCISPINHSSDNLSDYSCVSDTTTEILSNLENPLSSNFLRNDLCKFSNLFSGVSGHLKIQPLTLVITGFVANLTRQSDLNTSLVLPEVNPLTAKMEVIDCLRNSFWAALRPNCVSYFASMISGFKELFQKEMEFPIYLDLKSYKLGFHWCDIYVDSEHNCHIQKINSLPCE
notes: Cdc24, S. pombe; The Cdc24 chain of m29, written alone for the cross-links; source: fission yeast pxd1Δ cells, co-overexpressed with Dna2, purified (anti-FLAG beads)
B2: in data set [2], the binding result was “binds”.
